This is an account of results in article PMC13056530.

The assay has as its target RorSlfn5, Schlafen nuclease fused to an Ig-like domain, from Raoultella ornithinolytica (Raoultella ornithinolytica). Put plainly: SEC-MALS. On the technique in general: In gel filtration, larger molecules generally elute earlier.

In turn, “RorSlfn5, Schlafen nuclease fused to an Ig-like domain, from Raoultella ornithinolytica (enzyme)” registered a stoichiometry N of 6.

The term stoichiometry N denotes the number of molecules, sites or subunits per partner or assembly.
